{
  "source": "paper PMC2777442",
  "about": "(Nucleic Acids Research, 2009)",
  "key": {"[1]": {"target": "T1, TFAM (mature, MTS removed) (Homo sapiens, UniProt Q00059 50-246)", "T1 sequence": "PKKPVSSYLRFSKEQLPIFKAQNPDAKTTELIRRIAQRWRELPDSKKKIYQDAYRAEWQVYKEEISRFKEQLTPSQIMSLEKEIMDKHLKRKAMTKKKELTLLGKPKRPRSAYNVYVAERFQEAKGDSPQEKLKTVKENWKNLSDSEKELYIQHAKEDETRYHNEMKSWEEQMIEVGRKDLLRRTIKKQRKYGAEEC", "assay": "fluorescence anisotropy"}, "AUC": {"target": "the molecule itself", "assay": "AUC"}, "[2]": {"target": "T1, TFAM (mature, MTS removed)", "assay": "fluorescence anisotropy", "remark": "listed apart in the source"}},
  "note": "Where two headings read alike, the source gives them in different places.",
  "data": [
    {"binder": "Bulged-DNA-S (dsDNA) DNA 1: CGATATTAAGAGCC DNA 2: GGCTCAATATCG", "values": [
      {"measurement": "apparent K (half saturation)", "setting": "[1]", "result": "164 ± 17", "unit": "nM"}
    ]},
    {"binder": "Human mitochondrial transcription factor A (TFAM), residues 50-246 (natural protein, UniProt Q00059-1 50-246, looked up) PKKPVSSYLRFSKEQLPIFKAQNPDAKTTELIRRIAQRWRELPDSKKKIYQDAYRAEWQVYKEEISRFKEQLTPSQIMSLEKEIMDKHLKRKAMTKKKELTLLGKPKRPRSAYNVYVAERFQEAKGDSPQEKLKTVKENWKNLSDSEKELYIQHAKEDETRYHNEMKSWEEQMIEVGRKDLLRRTIKKQRKYGAEEC", "values": [
      {"measurement": "stoichiometry N", "setting": "AUC", "result": 2}
    ]},
    {"binder": "Normal-DNA-S (dsDNA) DNA 1: CGATATTGAGCC DNA 2: GGCTCAATATCG", "values": [
      {"measurement": "apparent K (half saturation)", "setting": "[2]", "result": "413 ± 59", "unit": "nM"}
    ]}
  ]
}
